Target: Flightless I protein (human, endogenous in MET-1 and CC keratinocytes) (human) (UniProt Q13045)
Assay: cell-based or functional assay

Chain of UniProt Q13045 (Q13045 whole entry): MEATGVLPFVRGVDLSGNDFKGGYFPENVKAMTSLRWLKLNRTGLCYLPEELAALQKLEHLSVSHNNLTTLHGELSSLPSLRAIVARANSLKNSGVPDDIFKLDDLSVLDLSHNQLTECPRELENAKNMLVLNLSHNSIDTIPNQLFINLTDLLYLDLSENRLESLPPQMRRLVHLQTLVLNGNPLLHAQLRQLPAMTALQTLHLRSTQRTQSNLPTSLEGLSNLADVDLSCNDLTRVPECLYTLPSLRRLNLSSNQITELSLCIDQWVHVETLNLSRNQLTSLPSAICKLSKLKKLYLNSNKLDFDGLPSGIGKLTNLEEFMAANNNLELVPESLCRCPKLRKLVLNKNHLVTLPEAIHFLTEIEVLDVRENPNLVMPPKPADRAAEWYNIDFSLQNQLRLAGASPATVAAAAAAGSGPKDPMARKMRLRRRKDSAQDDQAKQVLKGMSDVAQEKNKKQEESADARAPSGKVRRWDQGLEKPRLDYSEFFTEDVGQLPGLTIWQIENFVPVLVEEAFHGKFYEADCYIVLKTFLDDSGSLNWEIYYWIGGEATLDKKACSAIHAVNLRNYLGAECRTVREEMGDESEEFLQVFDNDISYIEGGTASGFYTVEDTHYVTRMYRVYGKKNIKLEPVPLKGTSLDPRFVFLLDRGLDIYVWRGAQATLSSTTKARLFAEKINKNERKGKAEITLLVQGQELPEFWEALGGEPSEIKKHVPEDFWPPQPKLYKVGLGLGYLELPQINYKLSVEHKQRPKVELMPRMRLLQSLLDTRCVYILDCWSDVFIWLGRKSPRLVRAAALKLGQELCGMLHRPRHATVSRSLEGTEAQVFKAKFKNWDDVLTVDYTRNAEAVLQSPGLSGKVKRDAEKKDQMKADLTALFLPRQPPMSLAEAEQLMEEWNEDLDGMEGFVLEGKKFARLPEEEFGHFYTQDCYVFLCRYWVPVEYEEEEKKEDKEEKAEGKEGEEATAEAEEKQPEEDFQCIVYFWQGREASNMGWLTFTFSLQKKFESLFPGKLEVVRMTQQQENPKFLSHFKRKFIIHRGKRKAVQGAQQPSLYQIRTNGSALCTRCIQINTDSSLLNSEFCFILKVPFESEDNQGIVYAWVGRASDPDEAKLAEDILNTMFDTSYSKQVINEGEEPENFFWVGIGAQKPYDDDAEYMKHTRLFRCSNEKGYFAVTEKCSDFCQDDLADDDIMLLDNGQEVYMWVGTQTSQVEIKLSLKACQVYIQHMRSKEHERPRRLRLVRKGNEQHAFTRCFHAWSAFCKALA

- decrease in cell invasion properties of RDEB-SCC (CC) cells, 3D organotypic model: 30%
- decrease in cell invasion properties of sporadic SCC (MET-1) cells, 3D organotypic model: 60%
Substance: rFLAP-1 protein (LRRFIP1 (657-784) Protein-H00009208-Q01, Abnova Technologies) (from UniProt Q32MZ4 657-784)

Source: patent US20150320832A1
